KR20200059381A

Tests used:
[1] = target: 구제역 바이러스 혈청형 O 배양액(cal1~cal4) (Foot-and-mouth disease virus serotype O); test: sandwich ELISA, cal4, 1E58 coat 8 ug/ml, 1E58-HRP 0.8 ug/ml, 450 nm
[2] = target: 구제역 바이러스 혈청형 O 배양액(cal1~cal4) (Foot-and-mouth disease virus serotype O); test: sandwich ELISA, cal2, 1E58 coat 4 ug/ml, 1E58-HRP 0.4 ug/ml, 450 nm
[3] = target: 구제역 바이러스 혈청형 O 배양액(cal1~cal4) (Foot-and-mouth disease virus serotype O); test: sandwich ELISA, cal1, 1E58 coat 8 ug/ml, 1E58-HRP 0.6 ug/ml, 450 nm
[4] = target: 구제역 바이러스 혈청형 O 배양액(cal1~cal4) (Foot-and-mouth disease virus serotype O); test: sandwich ELISA, cal1, 1E58 coat 1 ug/ml, 1E58-HRP 0.4 ug/ml, 450 nm
[5] = target: 구제역 바이러스 혈청형 O 배양액(cal1~cal4) (Foot-and-mouth disease virus serotype O); test: sandwich ELISA, cal4, 1E58 coat 2 ug/ml, 1E58-HRP 0.4 ug/ml, 450 nm
[6] = target: FMDV 혈청형 O Yang-Ju (Foot-and-mouth disease virus serotype O); test: sandwich ELISA, 1E58 coat 4 ug/ml, 1E58-HRP 0.3 ug/ml, virus culture fluid
[7] = target: FMDV 혈청형 Asia1 MOG/05 (Foot-and-mouth disease virus serotype Asia1); test: as above
[8] = target: FMDV 혈청형 O 정읍 (Foot-and-mouth disease virus serotype O); test: as above
[9] = target: FMDV 혈청형 Asia1 Shamir (Foot-and-mouth disease virus serotype Asia1); test: as above
[10] = target: FMDV 혈청형 O 진천 (Foot-and-mouth disease virus serotype O); test: as above
[11] = target: FMDV 혈청형 A A22 Iraq (Foot-and-mouth disease virus serotype A); test: as above
[12] = target: FMDV 혈청형 A Iran05 (Foot-and-mouth disease virus serotype A); test: as above
[13] = target: FMDV 혈청형 O O1 Manisa (Foot-and-mouth disease virus serotype O); test: as above
[14] = target: FMDV 혈청형 O Campos (Foot-and-mouth disease virus serotype O); test: as above
[15] = target: 구제역 바이러스 혈청형 O 배양액(cal1~cal4) (Foot-and-mouth disease virus serotype O); test: sandwich ELISA, cal4, 1E58 coat 1 ug/ml, 1E58-HRP 0.2 ug/ml, 450 nm
[16] = target: 구제역 바이러스 혈청형 O 배양액(cal1~cal4) (Foot-and-mouth disease virus serotype O); test: sandwich ELISA, cal1, 1E58 coat 2 ug/ml, 1E58-HRP 0.8 ug/ml, 450 nm
[17] = target: 구제역 바이러스 혈청형 O 배양액(cal1~cal4) (Foot-and-mouth disease virus serotype O); test: sandwich ELISA, cal1, 1E58 coat 4 ug/ml, 1E58-HRP 0.8 ug/ml, 450 nm
[18] = target: 구제역 바이러스 혈청형 O 배양액(cal1~cal4) (Foot-and-mouth disease virus serotype O); test: sandwich ELISA, cal4, 1E58 coat 4 ug/ml, 1E58-HRP 0.8 ug/ml, 450 nm
[19] = target: 구제역 바이러스 혈청형 O 배양액(cal1~cal4) (Foot-and-mouth disease virus serotype O); test: sandwich ELISA, cal2, 1E58 coat 2 ug/ml, 1E58-HRP 0.8 ug/ml, 450 nm
[20] = target: 불활화 FMDV 혈청형 O (Foot-and-mouth disease virus serotype O)
[21] = target: 구제역 바이러스 혈청형 O 배양액(cal1~cal4) (Foot-and-mouth disease virus serotype O); test: sandwich ELISA, cal3, 1E58 coat 2 ug/ml, 1E58-HRP 0.2 ug/ml, 450 nm
[22] = target: 구제역 바이러스 혈청형 O 배양액(cal1~cal4) (Foot-and-mouth disease virus serotype O); test: sandwich ELISA, cal1, 1E58 coat 2 ug/ml, 1E58-HRP 0.2 ug/ml, 450 nm
[23] = target: 구제역 바이러스 혈청형 O 배양액(cal1~cal4) (Foot-and-mouth disease virus serotype O); test: sandwich ELISA, cal3, 1E58 coat 8 ug/ml, 1E58-HRP 0.2 ug/ml, 450 nm
[24] = target: 구제역 바이러스 혈청형 O 배양액(cal1~cal4) (Foot-and-mouth disease virus serotype O); test: sandwich ELISA, cal3, 1E58 coat 2 ug/ml, 1E58-HRP 0.6 ug/ml, 450 nm
[25] = target: 구제역 바이러스 혈청형 O 배양액(cal1~cal4) (Foot-and-mouth disease virus serotype O); test: sandwich ELISA, cal1, 1E58 coat 2 ug/ml, 1E58-HRP 0.4 ug/ml, 450 nm
[26] = target: 구제역 바이러스 혈청형 O 배양액(cal1~cal4) (Foot-and-mouth disease virus serotype O); test: sandwich ELISA, cal1, 1E58 coat 8 ug/ml, 1E58-HRP 0.2 ug/ml, 450 nm
[27] = target: 구제역 바이러스 혈청형 O 배양액(cal1~cal4) (Foot-and-mouth disease virus serotype O); test: sandwich ELISA, cal4, 1E58 coat 4 ug/ml, 1E58-HRP 0.6 ug/ml, 450 nm
[28] = target: 구제역 바이러스 혈청형 O 배양액(cal1~cal4) (Foot-and-mouth disease virus serotype O); test: sandwich ELISA, cal2, 1E58 coat 2 ug/ml, 1E58-HRP 0.2 ug/ml, 450 nm
[29] = target: 구제역 바이러스 혈청형 O 배양액(cal1~cal4) (Foot-and-mouth disease virus serotype O); test: sandwich ELISA, cal2, 1E58 coat 1 ug/ml, 1E58-HRP 0.8 ug/ml, 450 nm

B1: 단클론항체 1E58 (antibody, V domains shown)
VH: EFQLQQSRPELAKPGASVKISCKTSGHTFTTYTMHWVKQSHVKSLEWIGCFNPNNGGATYNQKFKGKATLTMDKSSNTAYVEVRSLTSDDSAVYYCAYGNYVNFDYWGQGTTLTVSS
VL: DIVLTQSPASLAVSLGQRATISYRASKSVSTSGYSYMHWNQQKPGQPPRLLIYLVSNLESGVPARFSGSGSGTDFTLNIHPVEEEDAATYYCQHIRELTRSEGGPSWKN
O.D [1]: 0.59 O.D | O.D [2]: 3.08 O.D | O.D [3]: 3.27 O.D | O.D [4]: 2.43 O.D | O.D [5]: 0.56 O.D | O.D (450nm) [6]: 4 O.D | O.D (450nm) [7]: 3.85 O.D | O.D (450nm) [8]: 3.86 O.D | O.D (450nm) [9]: 4 O.D | O.D (450nm) [10]: 4 O.D | O.D (450nm) [11]: 3.79 O.D | O.D (450nm) [12]: 4 O.D | O.D (450nm) [13]: 4 O.D | O.D (450nm) [14]: 3.96 O.D | O.D [15]: 0.5 O.D | O.D [16]: 4 O.D | O.D [17]: 4 O.D | O.D [18]: 1.46 O.D | O.D [19]: 3.67 O.D | O.D (450nm) [20]: 1.09 O.D | O.D [21]: 0.98 O.D | O.D [22]: 3.12 O.D | O.D [23]: 0.62 O.D | O.D [24]: 1.89 O.D | O.D [25]: 3.87 O.D | O.D [26]: 2.35 O.D | O.D [27]: 1.11 O.D | O.D [28]: 1.8 O.D | O.D [29]: 1.97 O.D
